Data: the supplement of paper PMC7125110
± gives the standard error. For some assays here: This sample holds only a part of the variants without activity.

B1: glmS ribozyme (parent)
chain: AUAAAAGCGCCAGAACUACAGAAAUGUAGUUGACGAGGAGGAGGUUUAUCGAAUUUUCGGCGGAUGCCUCCAAA

Experiments:
Conditions in all cases: with glucosamine-6-phosphate
glucosamine-6-phosphate [1] = variants of: B1; assay: kcat; higher = faster cleavage; RNA array
Outline: (§1)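 kcat and KM were obtained from weighted Michaelis–Menten fits across concentrations of kobs values. Those came from one- or two-exponential decay fits to per-tile medians normalised to baseline and to non-cleaving reference variants. The variants were barcoded ribozymes transcribed in situ by E. coli RNA polymerase on sequenced MiSeq chips and tracked through a hybridised Cy3 probe at 37 °C, with 40 μM to 10 mM glucosamine-6-phosphate in HEPES/KCl/Mg(OAc)2 buffer flowed in.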

glucosamine-6-phosphate [2] = variants of: B1; assay: KM; higher = weaker cofactor use; RNA array
Outline: as §1

glucosamine-6-phosphate [3] = variants of: B1; assay: self-cleavage kobs at 2500 uM GlcN6P; higher = faster cleavage; RNA array
Outline: as §1

glucosamine-6-phosphate [4] = variants of: B1; assay: self-cleavage kobs at 10000 uM GlcN6P; higher = faster cleavage; RNA array
Outline: as §1

glucosamine-6-phosphate [5] = variants of: B1; assay: self-cleavage kobs at 640 uM GlcN6P; higher = faster cleavage; RNA array
Outline: as §1

glucosamine-6-phosphate [6] = variants of: B1; assay: self-cleavage kobs at 40 uM GlcN6P; higher = faster cleavage; RNA array
Outline: as §1

glucosamine-6-phosphate [7] = variants of: B1; assay: self-cleavage kobs at 160 uM GlcN6P; higher = faster cleavage; RNA array
Outline: as §1

Variant | kcat (glucosamine-6-phosphate [1]) [s⁻¹] | KM (glucosamine-6-phosphate [2]) [µM] | self-cleavage kobs at 2500 uM GlcN6P (glucosamine-6-phosphate [3]) [s⁻¹] | self-cleavage kobs at 10000 uM GlcN6P (glucosamine-6-phosphate [4]) [s⁻¹] | self-cleavage kobs at 640 uM GlcN6P (glucosamine-6-phosphate [5]) [s⁻¹] | self-cleavage kobs at 40 uM GlcN6P (glucosamine-6-phosphate [6]) [s⁻¹] | self-cleavage kobs at 160 uM GlcN6P (glucosamine-6-phosphate [7]) [s⁻¹]
A6C A14G | 0.000252 ± 8.5e-06 | 1220 ± 210 | 0.000164 ± 3.1e-05 | 0.000226 ± 2.3e-05 | – | – | –
C67A U69G | 4.96e-05 ± 1.7e-05 | – | 6.57e-05 ± 1.3e-05 | – | 6.63e-05 ± 1.6e-05 | – | –
A39C C67G | 0.000391 ± 0.00014 | – | 0.000216 ± 1.7e-05 | – | 8.41e-05 ± 7.6e-06 | 2.13e-05 ± 7.7e-06 | 3.74e-05 ± 7.5e-06
G41C A52U | 1.27e-05 ± 7.6e-07 | – | – | – | – | < 1e-05 | < 1e-05
G37A G43A | 2.89e-05 ± 3.1e-06 | – | – | 2.52e-05 ± 8.5e-06 | – | < 1e-05 | < 1e-05
A6G U54G | 0.000277 ± 1.2e-05 | 1230 ± 140 | 0.000179 ± 2.9e-05 | 0.000251 ± 3.1e-05 | 9.48e-05 ± 1.7e-05 | – | –
C11U U30C | 0.000527 ± 0.00014 | 2780 ± 1100 | 0.000213 ± 4.9e-05 | 0.000465 ± 9.9e-05 | 9.85e-05 ± 1.3e-05 | – | 5.41e-05 ± 2.1e-05
C16A U55G | 0.00294 ± 0.001 | – | 0.00101 ± 0.00012 | 0.00216 ± 0.00033 | 0.000304 ± 5.7e-05 | 4.26e-05 ± 1.2e-05 | 0.000166 ± 3.8e-05
A14U A15G C34G C50A G62U | 1.29e-05 ± 5.5e-06 | – | – | – | – | – | –
G29C C70A | 4.11e-05 ± 9.8e-06 | – | 4.33e-05 ± 9.8e-06 | – | 5.19e-05 ± 9.6e-06 | – | 2.35e-05 ± 1.1e-05
G40U G66C | 0.000542 ± 7.3e-05 | 2060 ± 890 | – | 0.00046 ± 6.4e-05 | – | – | –
U56C U69C | 3.67e-05 ± 7.4e-06 | – | – | 3.13e-05 ± 1.3e-05 | – | < 1e-05 | –
G37A C70A | 1.38e-05 ± 4.2e-06 | – | – | – | – | < 1e-05 | –
G32A C50A | < 1e-05 | – | – | – | – | – | –
A53C U69G | 4.01e-05 ± 8e-06 | – | 4.25e-05 ± 8.8e-06 | – | 5.28e-05 ± 1.3e-05 | – | –
A33U C50U C68U | 2.95e-05 ± 1.3e-05 | – | – | – | < 1e-05 | – | –
U45C A53U | 0.0028 ± 0.0008 | 4320 ± 1700 | 0.00109 ± 0.00022 | 0.00199 ± 0.00035 | 0.00031 ± 5e-05 | 4.26e-05 ± 1.2e-05 | 0.000117 ± 2.5e-05
G7A U31G | 2.76e-05 ± 2.9e-06 | 2490 ± 920 | – | – | – | – | –
A48U A53U | 0.000308 ± 4.1e-05 | 1960 ± 750 | 0.000161 ± 2e-05 | 0.000265 ± 2.8e-05 | 0.000104 ± 3.1e-05 | – | –

Variant | kcat (glucosamine-6-phosphate [1]) [s⁻¹] | KM (glucosamine-6-phosphate [2]) [µM] | self-cleavage kobs at 2500 uM GlcN6P (glucosamine-6-phosphate [3]) [s⁻¹] | self-cleavage kobs at 10000 uM GlcN6P (glucosamine-6-phosphate [4]) [s⁻¹] | self-cleavage kobs at 640 uM GlcN6P (glucosamine-6-phosphate [5]) [s⁻¹] | self-cleavage kobs at 40 uM GlcN6P (glucosamine-6-phosphate [6]) [s⁻¹] | self-cleavage kobs at 160 uM GlcN6P (glucosamine-6-phosphate [7]) [s⁻¹]
G43U U65A | 4.13e-05 ± 2e-06 | 5670 ± 730 | – | 2.64e-05 ± 1.1e-05 | < 1e-05 | – | < 1e-05
U47C C67G | 0.000337 ± 4.8e-05 | 1740 ± 450 | 0.000239 ± 3.4e-05 | 0.000279 ± 3.1e-05 | 8.28e-05 ± 9.1e-06 | – | 3.84e-05 ± 8.3e-06
C16U G66C C67U | 3.45e-05 ± 4.4e-06 | – | – | – | – | – | –
C11G G66A | < 1e-05 | – | – | < 1e-05 | < 1e-05 | < 1e-05 | < 1e-05
A52G G62U | < 1e-05 | – | – | – | – | – | –
G59A C68A | < 1e-05 | – | – | – | – | < 1e-05 | –
U55G U65A | 0.00461 ± 0.00094 | 3100 ± 880 | 0.00174 ± 0.00025 | 0.00388 ± 0.00043 | 0.000695 ± 0.00011 | 6.02e-05 ± 7.6e-06 | 0.000296 ± 4.5e-05
A48G C70U | 0.000237 ± 3.3e-05 | 1840 ± 620 | 0.000179 ± 2.8e-05 | 0.000192 ± 2.1e-05 | 5.39e-05 ± 1.1e-05 | – | –
G38U G51A | < 1e-05 | – | < 1e-05 | – | – | – | –
A6G A39G | 0.00207 ± 0.0008 | – | 0.000791 ± 0.0001 | 0.00121 ± 0.00015 | 0.000144 ± 2.7e-05 | – | 6.4e-05 ± 1.4e-05
C11U C16A | 0.000174 ± 7e-06 | 1760 ± 190 | 0.000106 ± 2.2e-05 | 0.000145 ± 2.9e-05 | 4.38e-05 ± 1.9e-05 | – | –
C67U U69G | 3.43e-05 ± 1.5e-05 | – | 4.75e-05 ± 1.2e-05 | – | – | – | 4.85e-05 ± 1.1e-05
C11A U30G | 0.000664 ± 7.4e-05 | 6140 ± 920 | 0.000172 ± 5.6e-05 | 0.000422 ± 9.6e-05 | 6.39e-05 ± 1.1e-05 | – | –
G32A A53U | 0.00208 ± 0.00084 | – | 0.00067 ± 0.00016 | 0.00228 ± 0.0003 | 0.000595 ± 0.0001 | 3.74e-05 ± 9.9e-06 | 0.000175 ± 3.9e-05
G13U G29U | 0.000324 ± 4.8e-05 | 3430 ± 1000 | 0.000161 ± 2.1e-05 | 0.000234 ± 2.3e-05 | 4.23e-05 ± 9.2e-06 | – | –
A42U U46A | 0.000165 ± 3.2e-05 | 4410 ± 1900 | 7.32e-05 ± 1.7e-05 | 0.000112 ± 1.7e-05 | – | – | –
A14C G40U | 0.000718 ± 9.8e-05 | 2800 ± 790 | 0.000352 ± 6.1e-05 | 0.000555 ± 5.2e-05 | 0.000144 ± 2.2e-05 | – | –
G32U U69C | 0.00053 ± 3.6e-05 | 3470 ± 470 | 0.000232 ± 4.8e-05 | 0.000391 ± 5.4e-05 | 7.6e-05 ± 2.3e-05 | – | –
